Molecular target: caveolin, endogenous in mouse hippocampal primary neurons (mouse (endogenous in hippocampal primary neurons)) (UniProt P49817)
Assay: co-IP; competition: synthetic Tat peptides incubated with living hippocampal primary neurons for 45 min before lysis; anti-caveolin immunoprecipitate blotted for mGlu1 receptor, band intensity normalised to control (n=3)

Chain of UniProt P49817 (P49817 whole entry): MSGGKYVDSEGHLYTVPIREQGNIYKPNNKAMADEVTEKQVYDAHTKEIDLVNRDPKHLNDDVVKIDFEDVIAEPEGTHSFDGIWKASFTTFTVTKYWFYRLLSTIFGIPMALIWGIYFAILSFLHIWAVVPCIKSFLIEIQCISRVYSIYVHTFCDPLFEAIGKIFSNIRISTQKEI

Q: Which mGlu1α receptor co-precipitated with caveolin in the presence of the peptide, % of control does the source give for “Tat-blocking peptide (Tat peptide fused with caveolin binding site of mGlu1α receptor)” here?
A: 73.3 % of control

Reference: publication PMC3937055
